Experimental findings from US20250250357A1 (NANJING ZAIMING PHARMACEUTICAL, published 2025) are described below.

Residue numbers refer to the chain shown, from its start.

The chains are these.
T1: monkey MSLN full-length protein (NCBI: XP_028696439.1) expressed on HEK293T-monkey MSLN cells (monkey)
T1 construct: Whole encoded precursor
T1 chain: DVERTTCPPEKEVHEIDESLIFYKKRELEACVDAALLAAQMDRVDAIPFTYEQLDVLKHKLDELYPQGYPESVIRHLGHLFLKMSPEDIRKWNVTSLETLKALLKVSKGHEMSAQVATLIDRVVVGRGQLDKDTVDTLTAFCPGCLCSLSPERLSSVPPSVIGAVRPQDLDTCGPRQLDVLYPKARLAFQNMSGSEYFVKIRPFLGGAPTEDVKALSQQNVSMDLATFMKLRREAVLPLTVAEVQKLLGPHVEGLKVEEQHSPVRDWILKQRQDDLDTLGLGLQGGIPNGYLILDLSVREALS

B1: S009-F7.21.16 (antibody, human IgG1, kappa, V domains shown)
VH: QVQLQQPGTELVKPGASVKLSCKASGYTFTTFWMHWVKQRPGQGLEWIGGVNPTNGGTNYNEKFRTKATLTVDKSSTTADMQLSSLTSEDSAVYYCAPHYISSRPGFAYWGQGTLVTVSG
VL: DIVMTQSQKFMSTSGGDRVSVTCKASQNVGTNVAWYQQKPGQSPKALIYSASYRYSGVPDRFTGSGSGTDFILTISNVQSEDLAEYFCQQYNSYPLTFGGGTKLEIKR
notes: human-murine chimeric antibody, human IgG1/kappa constant regions
B2: S009-F7.33.24 (antibody, human IgG1, kappa, V domains shown)
VH: B1 VH with T31S, F32Y, G50N, T54S, T58S, R65K, T66N, T77S, S84N, S102G
VL: B1 VL with G15V, V33I, I72T, S76T, L104V
notes: as for B1
B3: S009-F7.23.19 (antibody, human IgG1, kappa, V domains shown)
VH: EVKLVESGGGLVQPGGSLSLSCAASGFTFTDYYMSWVRQPPGKALEWLGFIRSKANAYTTEYSASVKGRFTISRDNSQSILYLQMNDLRAEDSATYYCARYYYYGSGYVWYFDVWGTGTTVTVSS
VL: B1 VL with G15V, N28S, S43F, I72T, S76I, G100A, I106L
notes: as for B1
B4: S009-F7.25.19 (antibody, human IgG1, kappa, V domains shown)
VH: QVQLQQPGTELVKPGASVKLSCKASGYTFTSYWMHWVKQRPGQGLEWIGNIIPSNGGTKYNEKFKSKATLTVDKSSSTAYMQLSSLTSEDSAVYYCSPHYYGGSPGFAYWGQGTLITVSA
VL: B1 VL with G15V, T22I, I72T
notes: as for B1
B5: S009-F7.30.5 (antibody, human IgG1, kappa, V domains shown)
VH: QVQLQQPKTELVKPGASVKLSCKASGYIFTTYWMHWVKQRPGQGLEWIGNVNPSNGGTMYNEKFERRATLTVDKSSSTADMQLSSLTSEDSAVYYCVPHYIGSRPGFAYWGQGTLVTVSG
VL: B1 VL with G15V, Q38H, I48L, I72T, S76T
notes: as for B1
B6: S009-F7.26.15 (antibody, human IgG1, kappa, V domains shown)
VH: DVQLQESGPGLVKPSQTVFLTCTVTGISITTGNYRWSWIRQFPGNKLEWIGYIYYTGFITYNPSLTSRTTITRDTPKNQFFLEMKSLTAEDTATYYCARDDYDYDVFAYWGQGTLVTVSA
VL: DIQMTQSPASLSASVGETVTITCRASGNIHNYLAWYHQKQGKSPQFLVYKAKTLADGVPSRFSGSGSGTQYSLKINRLQPEDFGSYYCQHFLSIPLTFGAGTKLELKR
notes: as for B1

T3 sequence (Q13421 495-614): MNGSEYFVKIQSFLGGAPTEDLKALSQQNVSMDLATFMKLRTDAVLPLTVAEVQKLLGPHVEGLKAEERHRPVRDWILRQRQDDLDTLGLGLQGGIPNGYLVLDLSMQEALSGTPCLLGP

The target in one assay is T2, human MSLN protein endogenously expressed on OVCAR3 tumor cells (human, UniProt Q13421 296-598).
T2 construct: whole, on cells; Endogenous target on OVCAR3 cells; kept apart from the recombinant full-length construct; also called mesothelin
T2 sequence (Q13421 other isoform, or with tags, fused parts or gaps): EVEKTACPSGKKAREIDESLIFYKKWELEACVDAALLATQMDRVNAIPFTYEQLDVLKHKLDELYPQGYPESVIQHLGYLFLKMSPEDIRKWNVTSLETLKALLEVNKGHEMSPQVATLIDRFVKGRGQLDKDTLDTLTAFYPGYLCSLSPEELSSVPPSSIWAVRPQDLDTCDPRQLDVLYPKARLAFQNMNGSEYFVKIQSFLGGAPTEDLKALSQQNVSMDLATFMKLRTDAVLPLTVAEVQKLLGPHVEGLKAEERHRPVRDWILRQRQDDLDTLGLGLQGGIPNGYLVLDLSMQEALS
The experiment in a line: FACS on OVCAR3 cells.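 Further: flow cytometry binding of test antibodies to cells, 2 h incubation on ice, readout as cell mean fluorescence intensity.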
Procedure: (§1) The desired cells were expanded to the logarithmic growth phase in a T-75 cell culture flask. […] After the cells from the previous step were subjected to cell counting, the cell pellet was resuspended to 2×10⁶ cells/mL in a blocking buffer of [PBS+2% (w/w) BSA] and added into a 96-well FACS reaction plate at 50 μL/well. A chimeric antibody (a sample to be tested) was added at 50 μL/well, and the plate was incubated on ice for 2 h. […] After the plate was centrifuged and washed 5 times with a PBST buffer, assay and analysis were performed by FACS (FACS CantoII, purchased from BD). Data analysis was performed by software (Flowjo) to obtain the mean fluorescence intensity (MFI) of the cells.
Consider B1, for which the concentration for a half-maximal effect (EC50) (usually the concentration giving half of the maximal effect) was found to be 0.52 nM and the “Maximum mean fluorescence intensity” value turned out to be 32600.

For the molecule B2, the midpoint of the response, the EC50, lay at 0.15 nM and the “Maximum mean fluorescence intensity” value was 31200.

Consider B3, for which a half-maximal response (EC50) required 0.15 nM and the “Maximum mean fluorescence intensity” value is 29300.

With B4, the EC50 was determined as 0.18 nM and the “Maximum mean fluorescence intensity” value turned out to be 24200.

On to B5, for which the 50% effective concentration (EC50) stood at 0.66 nM and the “Maximum mean fluorescence intensity” value amounted to 31800.

Regarding B6, the EC50 worked out at 0.2 nM and the “Maximum mean fluorescence intensity” value stood at 16200.

Another assay concerns the target T3, human MSLN-R3 protein (Met487-Ser606 of NCBI AAH09272.1) expressed on HEK293T-hMSLN-R3 cells (human, UniProt Q13421 487-606).
T3 construct: also called Region3
Briefly: FACS on HEK293T-hMSLN-R3 cells.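 Further: flow cytometry binding of test chimeric antibodies to cells after 2 h incubation on ice, with values derived from the mean fluorescence intensity of the cells.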
Procedure: as §1
Regarding B1, the concentration giving a half-maximal response (EC50) was 0.16 nM and the “Maximum mean fluorescence intensity” value was 6820.

On to B2, for which a half-maximal response (EC50) required 0.06 nM and the “Maximum mean fluorescence intensity” value worked out at 6480.

B3: it took 0.05 nM to reach a half-maximal effect (EC50) and the “Maximum mean fluorescence intensity” value is 6570.

Regarding B4, a half-maximal response (EC50) required 0.06 nM and the “Maximum mean fluorescence intensity” value was determined as 5350.

For B5, the EC50 was 0.24 nM and the “Maximum mean fluorescence intensity” value is 6160.

Consider B6, for which it took 0.09 nM to reach a half-maximal effect (EC50) and the “Maximum mean fluorescence intensity” value was determined as 6940.

Another assay has as its target T1, monkey MSLN full-length protein (NCBI: …). The experiment in a line: FACS on HEK293T-monkey MSLN cells.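 Further: flow cytometry binding of chimeric antibodies to the cells, with a 2 h incubation on ice.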
Procedure: as §1
B1: a half-maximal response (EC50) required 0.3 nM and the “Maximum mean fluorescence intensity” value was 50900.

Turning to B2, the EC50 amounted to 0.13 nM and the “Maximum mean fluorescence intensity” value is 47300.

Regarding B3, a half-maximal response (EC50) required 0.13 nM and the “Maximum mean fluorescence intensity” value is 54300.

For the molecule B4, the concentration giving a half-maximal response (EC50) is ~0.16 nM and the “Maximum mean fluorescence intensity” value stood at 43200.

For the molecule B5, it took 0.34 nM to reach a half-maximal effect (EC50) and the “Maximum mean fluorescence intensity” value turned out to be 47400.

B6: the “Maximum mean fluorescence intensity” value worked out at 108 and the binding result is “no binding”.
